From patent US20250223376A1 (VOYAGER THERAPEUTICS, published 2025)
Values joined by “and” are separate entries in the source; they are usually repeats but may differ in a detail not shown here. Equal values may be shown once.

Tests used:
[1] = target: T1, HER2 ECD (human, UniProt P04626 23-652); experiment: SPR Biacore 8K, captured Ab, HER2 ECD analyte; replicate 1
T1 construct: extracellular domain; also called HER2/neu; ErbB2

[2] = target: T1, HER2 ECD; experiment: SPR Biacore 8K, captured Ab, HER2 ECD analyte; printed mean
[3] = target: T1, HER2 ECD; experiment: SPR Biacore 8K, captured Ab, HER2 ECD analyte; replicate 2

B1: HER-78 anti-HER2 bispecific antibody molecule (bispecific antibody)
chain 1: QVQLVQSGAEVKKPGASVKVSCKASGYSFTGYFINWVREAPGQGLEWMGHISSSYATSTYNQKFQGRVTFTVDTSSSTAYMELSSLRSEDTAVYYCVRSGNYEEYAMDYWGQGTLVTVSS
chain 2: not shown
In the case of B1, the Kd [1] is reported as 0.54 nM and 0.544 nM, the koff [1] is reported as 7.53e-05 s⁻¹ and the kon [1] is reported as 138000 M⁻¹ s⁻¹. For the same binder, the Kd [2] was 0.44 nM and 0.436 nM, the koff [2] was 7.28e-05 s⁻¹ and the kon [2] was 164000 M⁻¹ s⁻¹. It also gave a Kd [3] of 0.57 nM, a koff [3] of 9.89e-05 s⁻¹ and a kon [3] of 174000 M⁻¹ s⁻¹.
